Reference: paper PMC11057775, “Structural characterization of two nanobodies targeting the ligand-binding pocket of human Arc” (PLOS ONE, 2024)
Where no end group is shown, it is not given here.

Key:
[1] = molecular target: T1, Arc N-lobe (Arc-NL, Arc 207-277) (human, UniProt Q7LC44); assay: ITC; displacement assay: 100 μM E5/H11 (titrant) into 10 μM Arc-NL saturated with 100 μM P1, TBS, 20 °C; apparent constants, one replicate; settings: both partners purified
T1 construct: Activity-regulated cytoskeleton-associated protein (Arc), N-lobe, residues 207-277; identical for human, rat and mouse Arc-NL; construct His6-MBP-TEV-NL in pETMBP_1a; 8.9 kDa as printed; also called human Arc N-lobe; source: E. coli BL21(DE3), purified (Ni-NTA, tag cleavage, reverse Ni-NTA, SEC); not shown: His6, N-terminal, cleaved; MBP, N-terminal, cleaved

[2] = molecular target: T2, full-length rat Arc with a poly-Ala mutation in residues 113-119 (rArcFL-7A) (rat, UniProt Q63053, poly-Ala mutation in residues 113-119); assay: SEC-MALS + other: SEC-SAXS; rArcFL-7A alone and with E5, C11 or both; 20 mM Tris pH 7.5, 150 mM NaCl, 0.5 mM TCEP; 1:1.3 protein-to-nanobody ratio for SAXS; settings: both partners purified
T2 construct: Activity-regulated cytoskeleton-associated protein (Arc), rat, full length, residues 113-119 replaced by alanines; expressed with an N-terminal His6-MBP fusion in pHMGWA; also called flArc dimeric mutant; dimeric full-length Arc; not shown: His6, N-terminal, cleaved; MBP, N-terminal, cleaved

[3] = molecular target: T1, Arc N-lobe (Arc-NL, Arc 207-277); assay: ITC; 15 μM E5/H11 (titrant) into 1.5 μM Arc-NL (titrate), TBS (20 mM Tris-HCl pH 7.5, 150 mM NaCl), 20 °C, 1:1 binding model, four replicates; settings: both partners purified
[4] = molecular target: T3, Arc N-lobe (Arc-NL, Arc 207-277) (human, UniProt Q7LC44 207-277); assay: ITC; 2 mM P1 (titrant) into 200 μM Arc-NL (titrate), TBS, 20 °C, three sequential titrations concatenated, 1:1 binding model, one replicate; settings: both partners purified
T3 construct: Activity-regulated cytoskeleton-associated protein (Arc), N-lobe, residues 207-277; identical for human, rat and mouse Arc-NL; construct His6-MBP-TEV-NL in pETMBP_1a; 8.9 kDa as printed; also called human Arc N-lobe; source: E. coli BL21(DE3), purified (Ni-NTA, tag cleavage, reverse Ni-NTA, SEC); not shown: His6, N-terminal, cleaved; MBP, N-terminal, cleaved
T3 sequence (looked up): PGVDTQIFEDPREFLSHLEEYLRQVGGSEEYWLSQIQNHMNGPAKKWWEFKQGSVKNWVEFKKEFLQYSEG

[5] = molecular target: the molecule itself; assay: SEC-MALS + other: SEC-SAXS; rArcFL-7A alone and with E5, C11 or both; 20 mM Tris pH 7.5, 150 mM NaCl, 0.5 mM TCEP; 1:1.3 protein-to-nanobody ratio for SAXS

B1: anti-Arc nanobody E5 (VHH)
VHH: EVQLQESGGGLVQAGGSLRLSCAASGSIFSGNAMGWYRQAPGKQREVVAVISAGNSSNYVDSVKGRFTISRDNAKNTVYLQMNSLKPEDTAVYYCNVVKRGPQWGMEWGKGTLVTVSS
notes: alpaca nanobody; 12.8 kDa as printed; provided by Nanotag Biotechnologies in the vector pNT1433 (His6-TEV-E5); CDR3 holds a PxW motif; source: E. coli BL21(DE3), purified (Ni-NTA, tag cleavage, reverse Ni-NTA, SEC); not shown: His6, N-terminal, cleaved
In the case of B1, the “dH-App (Arc-NL saturated with P1)” value [1] is reported as -12 kcal/mol, the “stoichiometry Arc:E5:C11 of the ternary complex” value [2] is reported as 1 E5 per Arc chain (2 Arc : 2 E5 : 2 C11) and the “stoichiometry N” value [2] is reported as 1 E5 per Arc chain (2 E5 : 2 Arc). It also gave a Kd [3] of 0.99 nM and a dH [3] of -23.2 kcal/mol.

B2: anti-Arc nanobody H11 (VHH)
VHH: EVQLLESGGGLVQAGDSLRLSCAASGRTFSAYAMGWFRQAPGKEREFVAAISWSGNSTYYADSVKGRFTISRDNAKNTVYLQMNSLKPEDTAIYYCAARKPMYRVDISKGQNYDYWGQGTQVTVSS
notes: alpaca nanobody; 14.1 kDa as printed; provided by Nanotag Biotechnologies in the vector pNT1433 (His6-TEV-H11); CDR3 holds a PxY motif; source: E. coli BL21(DE3), purified (Ni-NTA, tag cleavage, reverse Ni-NTA, SEC); not shown: His6, N-terminal, cleaved
B2 was tested, and the “dH-App (Arc-NL saturated with P1)” value [1] was -10.3 kcal/mol, the Kd [3] was 1.14 nM and the dH [3] was -23.5 kcal/mol.

B3: FITC-labelled, TAT-tagged TARPγ2 peptide (forward peptide P1) (peptide)
peptide: YGRKKRRQRRRGGRIPSYRYR
modifications: also: FITC label, position not given here
notes: stretch of the transmembrane AMPAR regulatory protein γ2 (TARPγ2, stargazin); the split into TAT, linker and TARPγ2 stretch is mine; also called TARPγ2-derived peptide; source: synthetic peptide, bought: GenScript Biotech
Work on B3 yielded a Kd [4] of 5310 nM and a dH [4] of -14.9 kcal/mol.

B4: full-length rat Arc with a poly-Ala mutation in residues 113-119 (rArcFL-7A) (natural protein, UniProt Q63053 1-396, looked up)
chain: MELDHMTTGGLHAYPAPRGGPAAKPNVILQIGKCRAEMLEHVRRTHRHLLTEVSKQVERELKGLHRSVGKLENNLDGYVPTGDSQRWKKSIKACLCRCQETIANLERWVKREAAAAAAAFYRLERWADRLESMGGKYPVGSEPARHTVSVGVGGPEPYCQEADGYDYTVSPYAITPPPAAGELPEQESVGAQQYQSWVPGEDGQPSPGVDTQIFEDPREFLSHLEEYLRQVGGSEEYWLSQIQNHMNGPAKKWWEFKQGSVKNWVEFKKEFLQYSEGTLSREAIQRELDLPQKQGEPLDQFLWRKRDLYQTLYVDAEEEEIIQYVVGTLQPKFKRFLRHPLPKTLEQLIQRGMEVQDGLEQAAEPSVTPLPTEDETEALTPALTSESVASDRTQPE
notes: Activity-regulated cytoskeleton-associated protein (Arc), rat, full length, residues 113-119 replaced by alanines; expressed with an N-terminal His6-MBP fusion in pHMGWA; also called flArc dimeric mutant; dimeric full-length Arc; not shown: His6, N-terminal, cleaved; MBP, N-terminal, cleaved
With B4 the “stoichiometry N” value [5] was 2.
